A word on the Kd: it is the free concentration of one partner at which half of the binding sites on the other are occupied at equilibrium, for simple one-to-one binding. In general, koff refers to a measure of how fast the partners let go of each other. A lower koff goes with a long-lived complex. Usually kon stands for a measure of how fast the partners come together. The low end stands for slow association, the high end for fast association.

Substitutions are numbered along the chain they refer to. Like-named read-outs stand apart in the source and are kept apart here.

The target in experiment [1] is T1, human PTHrP (1-34) (human).
T1 construct: Synthetic peptide (Peninsula; Peptide Research Institute), coated on ELISA plates at 1 µg/ml or used in solid phase RIA; also called human parathyroid hormone related protein (1-34)
Briefly: ELISA on plate-coated human PTHrP (1-34) (1 µg/ml); bound antibody detected with alkaline phosphatase-conjugated goat anti-human IgG; O.D. 405/620. On the technique in general: In an ELISA, binding on a coated surface is turned into a signal by an enzyme label.
Method: (§1) An ELISA plate for determining antigen binding ability was prepared as follows. Each of the wells of a 96-well plate for ELISA (Maxisorp, NUNC) was coated with 100 μl of a coating buffer supplemented with 1 μg/ml of human PTHrP (1-34) and then blocked with 200 μl of a dilution buffer. Thereafter, into each of the wells, was added a culture supernatant of the COS-7 cells in which the hybrid antibody or humanized antibody was expressed or a solution of the purified hybrid antibody or the purified humanized antibody in stepwise dilution. After incubating at room temperature and washing with PBS-Tween20, 100 μl of alkaline phosphatase-conjugated goat anti-human IgG antibody (TAGO) was added to each of the wells. […] The solution was measured for absorbance at 405 nm using Microplate Reader (Bio Rad).

Experiment [2] concerns the target T1, human PTHrP (1-34). Described as above. The source holds these as a separate data set.
Method: as §1
In experiment [3] the target is T2, PTHrP (1-34+Cys) (human, C-terminal Cys coupled to sensor tip CM5 through PDEA (thiol coupling)). In words: BIACORE (SPR), PTHrP (1-34+C) immobilised on CM5 through the C-terminal Cys, antibody as analyte. (In general: Surface plasmon resonance follows binding to a sensor surface in real time, without labels.)
Method: (§2) In this experiment, kinetic analysis of the antigen-antibody interaction using BIACORE was conducted. PTHrP(1-34+Cys) was used as an antigen and adsorbed onto the sensor tip specifically for C-terminals. Purified antibodies of various concentrations were used as an analyte. From the sensorgram obtained, kinetics parameters (binding rate constant “kass” and dissociation rate constant “kdiss”) were calculated.
(§3) As a running buffer, HBS (10 mM HEPES, pH 7.4; 0.15 M NaCl; 3.4 mM EDTA; 0.005% Surfactant P20) at a flow rate of 5 μl/min. was employed. The carboxyl groups of carboxymethyldextran on the sensor tip CM5 were activated by an injection of 100 μl of 0.05M N-hydroxysuccinimide (NHS)/0.2M N-ethyl-N′-(3-dimethylaminopropyl)carbodiimide hydrochloride (EDC) and an injection of 100 μl of 80 mM 2-(2-pyridinyldithio)ethanamine (PDEA)/0.1M borate buffer (pH 8.5), and an additional injection of 10 μl of 5 μg/ml PTHrP (1-34+C)/10 mM sodium acetate buffer (pH 5.0) to adsorbe onto the C-terminals of PTHrP (1-34+C) specifically for Cys residues. Subsequently, an injection of 100 μl of 50 mM (L)-cystein/1M NaCl/0.1M sodium formate buffer (pH 4.3) was conducted to block excessively activated groups. Subsequently, an injection of 10 μl of 0.1M glycine-HCl buffer (pH 2.5) and 10 μl of 10 mM HCl was conducted to wash the substances having non-covalent bonding.
(§4) The date file of interest was read and a comparison of the reaction patterns was conducted by overlaying the reaction regions of interest (FIGS. 20-24). […] Further, kinetic analysis of the interaction was conducted using an analysis software specifically designed for BIACORE “BIAevaluation 2.1” (Pharmacia) which is capable of calculating the kinetics parameters (binding rate constant “kass” and dissociation rate constant “kdiss”) by curve cutting (Tables 4 and 5).
For experiment [4], the target named is T1, human PTHrP (1-34). Briefly: ELISA on plate-coated human PTHrP (1-34) (1 µg/ml); bound antibody detected with alkaline phosphatase-conjugated goat anti-human IgG; O.D. 405/620. This is another data set of the same source.
Method: as §1
In experiment [5] the target is T1, human PTHrP (1-34). The experiment is described as above. The source holds these as a separate data set.
Method: as §1
Experiment [6] addresses T1, human PTHrP (1-34). The description is as above. The source holds these as a separate data set.
Method: as §1
In experiment [7] the target is T1, human PTHrP (1-34). The description is as above. This is another data set of the same source.
Method: as §1
For experiment [8], the target named is T1, human PTHrP (1-34). Described as above. This is another data set of the same source.
Method: as §1
In experiment [9] the target is T1, human PTHrP (1-34). The description is as above. The source holds these as a separate data set.
Method: An ELISA plate for the determination of antigen binding ability was prepared as follows. Each of the wells of a 96-well plate for ELISA was coated with 100 μl of a solution comprising human PTHrP (1-34) (Peptide Research Institute) prepared in a coating buffer of a concentration of 1 μg/ml and then blocked with 200 μl of a dilution buffer. […] After incubating at room temperature and washing with PBS-Tween20, each well was added with 100 μl of a solution of alkaline phosphatase-conjugated goat anti-human IgG antibodies (TAGO). After incubating at room temperature and washing with PBS-Tween20, each well was added with 1 mg/ml of a substrate solution (“Sigma104”, p-nitrophenylphosphoric acid, SIGMA). The solution was measured for absorbance at −405 nm using Microplate Reader (Bio Rad).
The target in experiment [10] is T2, PTHrP (1-34+Cys). In words: BIACORE (SPR), PTHrP (1-34+C) immobilised on CM5 through the C-terminal Cys, antibody as analyte. This is another data set of the same source.
Method: as §2, §3, §4
Experiment [11] has as its target T1, human PTHrP (1-34). In words: solid phase RIA of hybridoma supernatants.

B1: humanized #23-57-137-1 antibody, H chain version a, L chain version s (antibody, V domains shown)
VH: QVQLVESGGGVVQPGRSLRLSCAASGFTFSSYGMSWVRQAPGKGLEWVATISSGGSYTYYPDSVKGRFTISRDNSKNTLYLQMNSLRAEDTAVYYCARQTTMTYFAYWGQGTLVTVSS
VL: QLVLTQSPSASASLGASVKLTCTLSSQHSTYTIEWYQQQPEKGPKYVMDLKQDGSHSTGDGIPDRFSGSSSGAERYLTISSLQSEDEADYICGVGDTIKEQFVYVFGGGTKLTVLG
For B1, the binding result in experiment [1] is “binds”.

B2: hH / hLa (antibody, V domains shown)
VH: B1 VH
VL: QLVLTQSPSASASLGASVKLTCTLSSQHSTYTIEWHQQQPEKGPRYLMKLKQDGSHSTGDGIPDRFSGSSSGAERYLTISSLQSEDEADYYCGVGDTIKEQFVYVFGGGTKLTVL
notes: copies: 2 + 2
Take B2: the binding result in [2] is “no binding (tested: about 390 ng/ml)”.

B3: humanized #23-57-137-1 antibody, H chain version a, L chain version m (antibody, V domains shown)
VH: B1 VH
VL: B1 VL with K45R, V47L, I91Y
notes: Human Cγ1 and human Cλ C regions; Expressed in COS-7 for ELISA and in CHO for BIACORE; also called hMBCm
Turning to B3, in experiment [3], the Kd turned out to be 0.358 nM, the koff came out at 0.000316 s⁻¹ and the kon was 883000 M⁻¹ s⁻¹. Moreover, the binding result in experiment [4] is “binds”.

B4: hH / hLb (antibody, V domains shown)
VH: B1 VH
VL: B2 VL with G43P, K49D
notes: copies: 2 + 2
Consider B4, for which the binding result in experiment [2] is reported as “no binding (tested: about 370 ng/ml)”.

B5: antibody comprising the humanized H chain version "a" and the chimeric L chain (antibody, V domains shown)
VH: B1 VH
VL: QLVLTQSSSASFSLGASAKLTCTLSSQHSTYTIEWYQQQPLKPPKYVMDLKQDGSHSTGDGIPDRFSGSSSGADRYLSISNIQPEDEAMYICGVGDTIKEQFVYVFGGGTKVTVLG
notes: Human Cγ1 H chain C region
Take B5: the binding result in [5] is “binds”.

B6: mouse FR1,2/human FR3,4 hybrid antibody (L chain m/hMBC1Laλ, humanized H chain version a) (antibody, V domains shown)
VH: B1 VH
VL: B1 VL with P8S, A12F, V18A, E41L, G43P, I91Y
notes: Human Cγ1 and human Cλ C regions; Expressed in COS-7
With B6, in [6], the binding result was “binds”.

B7: humanized #23-57-137-1 antibody, H chain version a, L chain version r (antibody, V domains shown)
VH: B1 VH
VL: B1 VL with K45R, V47L
For B7, the binding result in experiment [1] is listed as “binds”.

B8: mouse FR1,2/human FR3,4 hybrid antibody (L chain m/hMBC1Ldλ, humanized H chain version a) (antibody, V domains shown)
VH: B1 VH
VL: B1 VL with P8S, A12F, V18A, E41L, G43P
notes: as for B6
As to B8, in [6], the binding result is “binds”.

B9: humanized #23-57-137-1 antibody, H chain version a, L chain version j (antibody, V domains shown)
VH: B1 VH
VL: B1 VL with V47L, I91Y
notes: as for B6
B9: the binding result in [7] is given as “binds”.

B10: human FR1,2/mouse FR3,4 hybrid antibody (L chain h/mMBC1L(λ), humanized H chain version a) (antibody, V domains shown)
VH: B1 VH
VL: B5 VL with S8P, F12A, A18V, Y36H, L41E, P43G, K45R, V47L, D49K
notes: Human Cγ1 and human Cλ C regions; Expressed in COS-7; also called h/mMBC1Ld(λ)
On to B10, for which the binding result in [6] is given as “no binding (tested: about 340 ng/ml)”.

B11: hH / hLn (antibody, V domains shown)
VH: B1 VH
VL: B2 VL with H36Y, L47V
notes: copies: 2 + 2
With B11, the binding result in [4] was “no binding (tested: about 1650 ng/ml)”.

B12: humanized #23-57-137-1 antibody, H chain version a, L chain version t (antibody, V domains shown)
VH: B1 VH
VL: B1 VL with K45R
notes: as for B6
On to B12, for which the binding result in experiment [1] is given as “binds”.

B13: hH / hLc (antibody, V domains shown)
VH: B1 VH
VL: B2 VL with S84P
notes: copies: 2 + 2
In the case of B13, the binding result in experiment [2] is “no binding (tested: about 460 ng/ml)”.

B14: human FR1/mouse FR2,3,4 hybrid antibody (L chain hmmMBC1L(λ), humanized H chain version a) (antibody, V domains shown)
VH: B1 VH
VL: B5 VL with S8P, F12A, A18V
notes: as for B6
With B14, the binding result in experiment [8] is on record as “binds”.

B15: hH / hLd (antibody, V domains shown)
VH: B1 VH
VL: B2 VL with Y91I
notes: copies: 2 + 2
As to B15, in [2], the binding result is given as “no binding (tested: about 510 ng/ml)”.

B16: humanized #23-57-137-1 antibody, H chain version a, L chain version q (antibody, V domains shown)
VH: B1 VH
VL: B1 VL with V47L
notes: Human Cγ1 and human Cλ C regions; Expressed in COS-7 for ELISA and in CHO for BIACORE; also called hMBCq
As for B16, in [3], the Kd was found to be 0.225 nM, the koff was 0.000232 s⁻¹ and the kon is 1.03e+06 M⁻¹ s⁻¹. In addition, in experiment [1], the binding result was “binds”.

B17: humanized #23-57-137-1 antibody, H chain version a, L chain version l (antibody, V domains shown)
VH: B1 VH
VL: B1 VL with I91Y
notes: as for B6
With B17, the binding result in experiment [4] is reported as “binds”.

B18: humanized #23-57-137-1 antibody, H chain version a, L chain version o (antibody, V domains shown)
VH: B1 VH
VL: B1 VL with K45R, I91Y
notes: as for B6
For B18, in experiment [4], the binding result is “binds”.

B19: hH / hLf (antibody, V domains shown)
VH: B1 VH
VL: B2 VL with S84P, Y91I
notes: copies: 2 + 2
For the molecule B19, the binding result in experiment [7] is recorded as “no binding (tested: about 380 ng/ml)”.

B20: chimeric #23-57-137-1 antibody with human κ L chain C region (antibody, V domains shown)
VH: EVQLVESGGDLVKPGGSLKLSCAASGFTFSSYGMSWIRQTPDKRLEWVATISSGGSYTYYPDSVKGRFTISRDNAKNTLYLQMSSLKSEDTAMFYCARQTTMTYFAYWGQGTLVTVSA
VL: B5 VL
notes: Mouse V regions on a human Cγ1 H chain C region and a human Cκ L chain C region (from HEF-PM1k-gk); also called chimeric antibody (κ); MBC1HcDNA + MBC1L(κ)/neo
Turning to B20, in experiment [9], the binding result is listed as “binds”.

B21: mouse monoclonal antibody #23-57-137-1 (antibody, V domains shown)
VH: B20 VH
VL: B5 VL
notes: Whole mouse antibody with a mouse λ L chain; The H chain cDNA was amplified with the MHC-G1 primer; also called MBC
In [10], B21 came in with a Kd of 0.102 nM, a koff of 7.38e-05 s⁻¹ and a kon of 723000 M⁻¹ s⁻¹. Also, the binding result in experiment [11] is “binds”.

B22: chimeric #23-57-137-1 antibody with human λ L chain C region (antibody, V domains shown)
VH: B20 VH
VL: B5 VL
notes: It was expressed in COS-7 for ELISA and in CHO for BIACORE; also called chMBC; chH-chλ
Regarding B22, the binding result in [8] was “binds”. Also, in experiment [3], the Kd came to 0.134 nM, the koff amounted to 0.000166 s⁻¹ and the kon came out at 1.24e+06 M⁻¹ s⁻¹.

B23: mouse FR1/human FR2/mouse FR3,4 hybrid antibody (L chain mhmMBC1L(λ), humanized H chain version a) (antibody, V domains shown)
VH: B1 VH
VL: B5 VL with Y36H, L41E, P43G, K45R, V47L, D49K
notes: as for B6
With B23, in [8], the binding result was “no binding (tested: about 250 ng/ml)”.

For the origin of these results see US20080095772A1 (Chugai, published 2008).
